6 molecules from patent publication US20070010658A1 (published 2007) can be followed below.

Assay [1] deals with T1, TNF alpha (UniProt P01375 77-233, limits assumed).
T1 construct: also called tumour necrosis factor; TNFSF2
Briefly: SPR; off rate of the trimer against monomeric TN3-2-B. How it is done: (§1) Surface plasmon resonance (SPR) binding analysis was performed on a BIAcore 3000 instrument (BiaCore, Sweden). TNF alpha capture antibody (AHC3712, Biosource International) to be immobilized was dissolved in 10 mM NaAcetate pH 5.0 and then immobilized on a CM5 BiaCore sensor chip using the Amine Coupling kit (BiaCore, Sweden).
(§2) Binding analysis was performed at a flow rate of 5 μl/min. Before loading of the protein sample, the chip was equilibrated in 10 mM Tris pH 8.0, 150 mM NaCl, 2 mM CaCl₂, 50 μM EDTA and 0.005% Surfactant P20. TNF alpha was dissolved in 10 mM Tris pH 8.0, 150 mM NaCl, 2 mM CaCl₂ at 10 μg/mL and 10 μL was injected. Aliquots (20 μl) of TNF alpha binders in monomeric or the trimeric format were injected using the KINJECT option. Five min of dissociation were allowed before the chip was regenerated with 10 mM Glycine pH 2.5. Binding of TNF alpha binders was tested at six different protein concentrations, ranging from 1 to 200 nM. Binding data were evaluated using the BIAevaluation program version 3.2 (BiaCore).

Assay [2] deals with T1, TNF alpha. Briefly: SPR; fold increase in affinity of the trimer over monomeric TN3-2-B. How it is done:
as §1, §2

The target in assay [3] is T1, TNF alpha. Kind of assay: SPR (BIAcore 3000), TNF alpha captured by immobilised antibody AHC3712, binder injected. How it is done: as §1, §2
For assay [4], the target named is T1, TNF alpha. Briefly: SPR; fold increase in affinity of the trimer over monomeric TN3-2-C. The method, then:
as §1, §2

The target in assay [5] is T1, TNF alpha. Kind of assay: SPR; fold increase in affinity of the trimer over monomeric TN3-2-D. How it is done:
as §1, §2

Where only a bound is given, the exact number is not on record here.

T1 sequence (P01375 77-233 limits assumed): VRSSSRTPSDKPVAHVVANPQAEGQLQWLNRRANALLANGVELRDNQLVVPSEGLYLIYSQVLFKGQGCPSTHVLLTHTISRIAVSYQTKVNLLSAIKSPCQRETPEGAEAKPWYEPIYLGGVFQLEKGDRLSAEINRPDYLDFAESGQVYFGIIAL

B1: TN-2-B (trimeric) (designed binder)
chain: EPPTQKPKKIVNAKKDVVNTKMFEELKSRLDTLAQEVALLKEQQALQTVCLKGTKVHMKCFLAFTQTKTFHEASEDCISRGGTLSTPQTGSENDALYEYLRQSVGNEAEIWLGLNKVRSRYFWMDMTGTRIAYKNWETEITAQPDPTNNENCAVLSGAANGKWFGKRCRDQLPYICQFGIV
notes: also called trimeric version of TN3-2-B
Consider B1, for which the “fold improvement of off value” with TNF alpha [1] is above 1000 fold. This molecule gave a Fold increase with TNF alpha [2] of 304 fold. In the assay with TNF alpha [3], this molecule gave a dissociation constant (Kd) of around 0.24 nM, a koff of 0.000736 s⁻¹ and an association rate constant (kon) of 3.02e+06 M⁻¹ s⁻¹.

B2: TN-2-C (trimeric) (designed binder)
chain: EPPTQKPKKIVNAKKDVVNTKMFEELKSRLDTLAQEVALLKEQQALQTVCLKGTKVHMKCFLAFTQTKTFHEASEDCISRGGTLSTPQTGSENDALYEYLRQSVGNEAEIWLGLNKVRSRYFWVDMTGTRIAYKNWETEITAQPDPTNRENCAVLSGAANGKWFDKRCRDQLPYICQFGIV
notes: also called trimeric version of TN3-2-C
With B2, the Fold increase with TNF alpha [4] was 37 fold. Further, in the assay with TNF alpha [3], the Kd came to 4 nM, the koff is 0.00353 s⁻¹ and the kon is 884000 M⁻¹ s⁻¹.

B3: TN-2-D (trimeric) (designed binder)
chain: EPPTQKPKKIVNAKKDVVNTKMFEELKSRLDTLAQEVALLKEQQALQTVCLKGTKVHMKCFLAFTQTKTFHEASEDCISRGGTLSTPQTGSENDALYEYLRQSVGNEAEIWLGLNKVRSRYFWIDMTGTRIAYKNWETEITAQPDPNNRENCAVLSGAANGKWFGKRCRDQLPYICQFGIV
notes: also called trimeric version of TN3-2-D
On to B3, for which, in the assay with TNF alpha [5], the Fold increase came to 12 fold. Besides, in the assay with TNF alpha [3], the Kd is 4.1 nM, the koff is 0.00207 s⁻¹ and the kon amounted to 506000 M⁻¹ s⁻¹.

B4: TN3-2-B (monomeric) (designed binder)
chain: ALQTVCLKGTKVHMKCFLAFTQTKTFHEASEDCISRGGTLSTPQTGSENDALYEYLRQSVGNEAEIWLGLNKVRSRYFWMDMTGTRIAYKNWETEITAQPDPTNNENCAVLSGAANGKWFGKRCRDQLPYICQFGIV
notes: Purified monomer from the E. coli periplasm (pBAD) for SPR
Take B4: in the assay with TNF alpha [3], binding was characterised by a dissociation constant (Kd) of 73 nM, the dissociation rate constant (koff) came out at 0.923 s⁻¹ and the association rate constant (kon) was found to be 1.4e+07 M⁻¹ s⁻¹.

B5: TN3-2-D (monomeric) (designed binder)
chain: ALQTVCLKGTKVHMKCFLAFTQTKTFHEASEDCISRGGTLSTPQTGSENDALYEYLRQSVGNEAEIWLGLNKVRSRYFWIDMTGTRIAYKNWETEITAQPDPNNRENCAVLSGAANGKWFGKRCRDQLPYICQFGIV
notes: as for B4
In the assay with TNF alpha [3], B5 yielded a Kd of 50 nM, a koff of 0.0185 s⁻¹ and an association rate constant (kon) of 364000 M⁻¹ s⁻¹.

B6: TN3-2-C (monomeric) (designed binder)
chain: ALQTVCLKGTKVHMKCFLAFTQTKTFHEASEDCISRGGTLSTPQTGSENDALYEYLRQSVGNEAEIWLGLNKVRSRYFWVDMTGTRIAYKNWETEITAQPDPTNRENCAVLSGAANGKWFDKRCRDQLPYICQFGIV
notes: as for B4
Turning to B6, in the assay with TNF alpha [3], the Kd was determined as 150 nM, the koff was determined as 0.022 s⁻¹ and the kon was 134000 M⁻¹ s⁻¹.
